Target: growth hormone (GH) receptor (mouse) (UniProt P16882)
Assay: cell-based or functional assay

recombinant rat growth hormone (from UniProt P01244 27-216) (ligand)
GH receptor mRNA expression levels in the liver (quantitative RT-PCR, normalized to GAPDH, % of control), 60 minutes after 30 µg subcutaneous rGH in BALB/c mice (% of level prior to administration): 65 | IGF-1-BP3 mRNA expression levels in the liver (quantitative RT-PCR, normalized to GAPDH, % of control), 60 minutes after 30 µg subcutaneous rGH in BALB/c mice: 250 % increase
